The conditions of data set [1]: rat, in vivo, iv.
Protocol: (§1) Thirty one (31) adult male Sprague-Dawley rats with indwelling jugular vein and carotid artery catheters (JVC/CAC) (Charles River Labs, Hollister, Calif.) were utilized for this study. […] All animals were food fasted overnight. Prior to dosing, the rats were weighed, the tails and cage cards were labeled for identification and the doses were calculated. Anesthesia was induced and maintained with 3.0-5.0% isoflurane. The JVC and CAC were externalized and flushed with HEP/saline (10 IU/mL HEP/mL saline). The predose sample was collected from the JVC and the catheters were plugged, and labeled to identify the jugular vein and carotid artery. When all of the animals had recovered from anesthesia and the predose samples were processed, the animals were dosed, intravenously (IV) via the JVC using a 1 mL syringe containing the appropriate test article and the dead volume of the catheter was flushed with 0.9% saline to ensure the animals received the correct dose.
(§2) Following a single IV dose, blood samples were collected from groups 1A, 2A, 3A and 4A, at 0 (pre-dose collected as described above), 0.03, 0.33, 2.0, 6.0, 12.0 and 72.0 hours and from Groups 1B, 2B, 3B and 4B at 0 (pre-dose collected as described above), 0.17, 1.0, 4.0, 8.0, 24.0 and 48.0 hours via the carotid artery catheter and processed as stated in the protocol. Following the last collection point, the animals were euthanized.
(§3) Concentrations in plasma that were below LLOQ were replaced with zeros prior to generating Tables and PK analysis. In the event that more than half (>50%) of the data points were below zero, mean concentration will not be shown in the figures or used in PK parameters estimation. The following PK parameters were estimated using plasma concentration-time profile of each animal:
(§4) C0 Extrapolated concentration to time “zero” Cmax Maximum (peak) concentration AUCall Area under the concentration-time from zero to time of last concentration value T1/2(Z) Terminal elimination half-life AUCinf Area under the concentration-time from zero to time infinity Tmax Time to reach maximum or peak concentration following administration CL Total body clearance Vz Volume of distribution based on terminal phase Vss Volume of distribution at steady state MRTlast Mean residence time to last observable concentration
Data set [2] can be described thus: Pharmacokinetic study, single IV dose in rats, plasma concentrations, noncompartmental analysis. The note with it: for AUCINF / CL / Cmax / MRTlast / T½ / Vss: non-released PEG-BNP (or native BNP), equivalent protein mass 0.459 mg/kg IV, Sprague Dawley rats.
Protocol: as §1, §2, §3, §4

Entries after “also recorded” stand apart in the source; their conditions may differ.

For “ButyrALD-40K-BNP: non-releasable 40 kDa mPEG2-Butyr-ALD mono-PEG conjugate of BNP-32, N-terminus directed”, the “peak plasma concentration compared with ButyrALD-10K-BNP” value in data set [1] is reported as “higher peak plasma concentration”. In data set [2] (IV, rats, in words), the “clearance compared with ButyrALD-10K-BNP” value is “lower clearance” and the “half-life compared with ButyrALD-10K-BNP” value is recorded as “longer half-life”. In addition, in data set [2], the AUCINF is 41300 ng·h/mL; the CL is 0.185 mL/min/kg; the Cmax (in general, the maximum level reached in the sampled fluid or tissue) came to 1410 ng/mL; the MRTlast was 24.0 h. Further, in data set [2], the T½ stood at 26.1 h and the Vss (commonly the apparent volume that relates the amount in the body to the concentration in plasma or blood) is 0.631 L/kg.
For the compound `CC[C@H](C)[C@@H]1NC(=O)[C@H](CCCNC(=N)N)NC(=O)[C@H](CC(=O)O)NC(=O)[C@H](CCSC)NC(=O)[C@H](CCCCN)NC(=O)[C@H](CCCNC(=N)N)NC(=O)CNC(=O)[C@H](Cc2ccccc2)NC(=O)[C@@H](NC(=O)CNC(=O)[C@H](CO)NC(=O)CNC(=O)[C@H](CCC(N)=O)NC(=O)[C@@H](NC(=O)[C@H](CCSC)NC(=O)[C@H](CCCCN)NC(=O)[C@@H]2CCCN2C(=O)[C@@H](N)CO)C(C)C)CSSC[C@@H](C(=O)N[C@@H](CCCCN)C(=O)N[C@H](C(=O)N[C@@H](CC(C)C)C(=O)N[C@@H](CCCN=C(N)N)C(=O)N[C@@H](CCCN=C(N)N)C(=O)N[C@@H](Cc2cnc[nH]2)C(=O)O)C(C)C)NC(=O)CNC(=O)[C@H](CC(C)C)NC(=O)CNC(=O)[C@H](CO)NC(=O)[C@H](CO)NC(=O)[C@H](CO)NC(=O)[C@H](CO)NC1=O` [BNP, nesiritide, reference compound], the “measurable BNP in plasma after BNP administration” value in data set [2] (IV, rats, in words) was “No measurable plasma concentrations; also recorded: No BNP was measurable in plasma”.
For “C2-FMOC-PEG2-40K-BNP: releasable mono-PEG conjugate of BNP-32 with mPEG2-C2-fmoc-NHS-40K; hydrolysis generates unmodified peptide”, in data set [1] (male, Sprague-Dawley), the “peak concentration of conjugate in plasma” value worked out at 1300 ng/mL. In data set [1], the “time of peak concentration of released BNP” value turned out to be 0.3 h, the “time plasma conjugate concentrations remained above 100 ng/mL” value is “up to 24 h” and the “time released BNP stayed above 20 ng/mL” value came to 8 h. Further, the “half-life of conjugate in plasma” value in data set [2] (intact C2-FMOC-PEG2-40K-BNP, IV bolus, rats) was 15.0 h.
“ButyrALD-10K-BNP: non-releasable mPEG-Butyr-ALD-10K mono-PEG conjugate of BNP-32, N-terminus directed”: in data set [2], the AUCINF worked out at 96.6 ng·h/mL, the CL was determined as 79.17 mL/min/kg, the highest concentration (Cmax) amounted to 355 ng/mL and the MRTlast came to 0.368 h. Also, in data set [2], the T½ turned out to be 0.272 h and the Vss turned out to be 2.27 L/kg.

The record behind these values is patent publication US20110206633A1, “POLYMER CONJUGATES OF CD-NP PEPTIDES” (priority 2008, published 2011).
